T1: PF3D7_0420300 D1 (Plasmodium falciparum, UniProt Q8I1N6 1956-2015)
T1 sequence: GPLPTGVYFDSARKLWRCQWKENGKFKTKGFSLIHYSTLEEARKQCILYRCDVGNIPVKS

B1: CACACA_site55 (dsDNA)
DNA 1: CTCAATATTATTACTACACACAAATTAATATTTTCC
DNA 2: GGAAAATATTAATTTGTGTGTAGTAATAATATTGAG
B2: CACACA_site4748 (dsDNA)
DNA 1: GCCTTTTAGTATTTCACACACGTAAATGAGTATATC
DNA 2: GATATACTCATTTACGTGTGTGAAATACTAAAAGGC
B3: CACACA_site3513 (dsDNA)
DNA 1: CAATTACGCAGGAATGCACACAATAATAAAAAAAAT
DNA 2: ATTTTTTTTATTATTGTGTGCATTCCTGCGTAATTG
B4: CACACA_site3507 (dsDNA)
DNA 1: TATATAAACCCGTACACACACATATATGTATATATA
DNA 2: TATATATACATATATGTGTGTGTACGGGTTTATATA
B5: CACACA_site478 (dsDNA)
DNA 1: AAAAAAAAAAAAAAAACACACAAATCATAAATAAAT
DNA 2: ATTTATTTATGATTTGTGTGTTTTTTTTTTTTTTTT
B6: CACACA_site9081 (dsDNA)
DNA 1: TTTTACTAAATATATACACACATTATACATATATAT
DNA 2: ATATATATGTATAATGTGTGTATATATTTAGTAAAA
B7: CACACA_site8191 (dsDNA)
DNA 1: TATTATATTATACATACACACCCATATAATATGTTT
DNA 2: AAACATATTATATGGGTGTGTATGTATAATATAATA
B8: CACACA_site2544 (dsDNA)
DNA 1: TATTATTTATTATATGCACACATCGAACTATTATTT
DNA 2: AAATAATAGTTCGATGTGTGCATATAATAAATAATA
B9: CACACA_site2997 (dsDNA)
DNA 1: CATAATTATGCAATTGCACACAACTATCATTTTTTT
DNA 2: AAAAAAATGATAGTTGTGTGCAATTGCATAATTATG
B10: CACACA_site8689 (dsDNA)
DNA 1: AAAAAAAAAACACGCGCACACACACCCACCCACCCA
DNA 2: TGGGTGGGTGGGTGTGTGTGCGCGTGTTTTTTTTTT
B11: CACACA_site407 (dsDNA)
DNA 1: ATATTATATTATATAACACACATTTTTCATAACACT
DNA 2: AGTGTTATGAAAAATGTGTGTTATATAATATAATAT
B12: CACACA_site7392 (dsDNA)
DNA 1: GGTTCATATCTTAACACACACATACATATTATAGAT
DNA 2: ATCTATAATATGTATGTGTGTGTTAAGATATGAACC
B13: CACACA_site1453 (dsDNA)
DNA 1: ATATTATGTGATTGTGCACACTGGAGATTTTTTTTA
DNA 2: TAAAAAAAATCTCCAGTGTGCACAATCACATAATAT
B14: CACACA_site1962 (dsDNA)
DNA 1: TTTTTAACATATCATACACACAACAACTTTTTATAG
DNA 2: CTATAAAAAGTTGTTGTGTGTATGATATGTTAAAAA
B15: CACACA_site1529 (dsDNA)
DNA 1: AACTATAAAAAAAATACACACATTACCAAAAATATA
DNA 2: TATATTTTTGGTAATGTGTGTATTTTTTTTATAGTT
B16: CACACA_site337 (dsDNA)
DNA 1: AGCAGACACCAACACACACACATATATATATATATA
DNA 2: TATATATATATATATGTGTGTGTGTTGGTGTCTGCT
B17: CACACA_site4213 (dsDNA)
DNA 1: GGAATAGTAATATATACACACAAATACAGATATATA
DNA 2: TATATATCTGTATTTGTGTGTATATATTACTATTCC
B18: CACACA_site8576 (dsDNA)
DNA 1: TTCTTACATAAAATATCACACACATAAAAAAACAAT
DNA 2: ATTGTTTTTTTATGTGTGTGATATTTTATGTAAGAA
B19: CACACA_site8016 (dsDNA)
DNA 1: TTAGGTAGAAAAAAGACACACACATTATATATATAT
DNA 2: ATATATATATAATGTGTGTGTCTTTTTTCTACCTAA
B20: CACACA_site6753 (dsDNA)
DNA 1: GAAGTAATTTCATATACACACATATACATACATACA
DNA 2: TGTATGTATGTATATGTGTGTATATGAAATTACTTC
B21: CACACA_site2768 (dsDNA)
DNA 1: TAGAACAAATAAAACACACACATATATATATATATG
DNA 2: CATATATATATATATGTGTGTGTTTTATTTGTTCTA
B22: CACACA_site5943 (dsDNA)
DNA 1: AAATAAATATATAATACACACAAAAATATAAAATGG
DNA 2: CCATTTTATATTTTTGTGTGTATTATATATTTATTT
B23: CACACA_site2478 (dsDNA)
DNA 1: TAAACAGACATATAAACACACATATAAACCGACATA
DNA 2: TATGTCGGTTTATATGTGTGTTTATATGTCTGTTTA
B24: CACACA_site6268 (dsDNA)
DNA 1: AACATATTTATATACACACACATATTTATATGAAAT
DNA 2: ATTTCATATAAATATGTGTGTGTATATAAATATGTT
B25: CACACA_site3328 (dsDNA)
DNA 1: TGTATTTATAGCAATACACACATAACAATAAATATA
DNA 2: TATATTTATTGTTATGTGTGTATTGCTATAAATACA
B26: CACACA_site2570 (dsDNA)
DNA 1: AAAAGATAATTATGCACACACACACCCCCACCCAAC
DNA 2: GTTGGGTGGGGGTGTGTGTGTGCATAATTATCTTTT
B27: CACACA_site8829 (dsDNA)
DNA 1: TATGTAAAAAATTTAACACACACATATATATATATA
DNA 2: TATATATATATATGTGTGTGTTAAATTTTTTACATA
B28: CACACA_site2604 (dsDNA)
DNA 1: GAAAATATTACATACACGCACACATTAATATATTTA
DNA 2: TAAATATATTAATGTGTGCGTGTATGTAATATTTTC
B29: CACACA_site377 (dsDNA)
DNA 1: AGGTAGAAAAAAGACACACACATTATGTATATATAT
DNA 2: ATATATATACATAATGTGTGTGTCTTTTTTCTACCT
B30: CACACA_site254 (dsDNA)
DNA 1: TTTAATTATAAGATAACACACAAAAAAAATAAAATA
DNA 2: TATTTTATTTTTTTTGTGTGTTATCTTATAATTAAA
B31: CACACA_site7096 (dsDNA)
DNA 1: TACCTATATACATACACACACATATAACCAATGTAG
DNA 2: CTACATTGGTTATATGTGTGTGTATGTATATAGGTA
B32: CACACA_site4960 (dsDNA)
DNA 1: TTAATAACAAAATAAACACACATATATAAATACCCA
DNA 2: TGGGTATTTATATATGTGTGTTTATTTTGTTATTAA
B33: CACACA_site8579 (dsDNA)
DNA 1: AATATTTATAAATTTACACACACACCGGTGAACATA
DNA 2: TATGTTCACCGGTGTGTGTGTAAATTTATAAATATT
B34: CACACA_site3334 (dsDNA)
DNA 1: ATTTTATTTTTTCACACACACATATATATATATATA
DNA 2: TATATATATATATATGTGTGTGTGAAAAAATAAAAT
B35: CACACA_site6321 (dsDNA)
DNA 1: AAATTAATTAAATATACACACATATATAGATATATA
DNA 2: TATATATCTATATATGTGTGTATATTTAATTAATTT
B36: CACACA_site2985 (dsDNA)
DNA 1: AATATTTATAAAGACACACAAACAAAAAGGATAAAA
DNA 2: TTTTATCCTTTTTGTTTGTGTGTCTTTATAAATATT
B37: CACACA_site3144 (dsDNA)
DNA 1: ATAAAATATATGAAGACACACATAACATCATATTTT
DNA 2: AAAATATGATGTTATGTGTGTCTTCATATATTTTAT
B38: CACACA_site5414 (dsDNA)
DNA 1: AACAAGTTGCATGGTGCACACATGTATTTATATCTA
DNA 2: TAGATATAAATACATGTGTGCACCATGCAACTTGTT
B39: CACACA_site4786 (dsDNA)
DNA 1: AATATACACCCGTGTACACAAATATTTACAAAACGT
DNA 2: ACGTTTTGTAAATATTTGTGTACACGGGTGTATATT
B40: CACACA_site2379 (dsDNA)
DNA 1: ACATAGCAATGTTTCACACACAAGAAAAAATACAAT
DNA 2: ATTGTATTTTTTCTTGTGTGTGAAACATTGCTATGT
B41: CACACA_site1517 (dsDNA)
DNA 1: TATGAAATTATAATTACACACAGGAAAATAAAATGT
DNA 2: ACATTTTATTTTCCTGTGTGTAATTATAATTTCATA
B42: CACACA_site1730 (dsDNA)
DNA 1: AAAATTTTTTACTTTACACACATTTTGTATATTTTG
DNA 2: CAAAATATACAAAATGTGTGTAAAGTAAAAAATTTT
B43: CACACA_site3424 (dsDNA)
DNA 1: GATGAGGACAAACACACACACATAAGTTGATACATA
DNA 2: TATGTATCAACTTATGTGTGTGTGTTTGTCCTCATC
B44: CACACA_site7314 (dsDNA)
DNA 1: CAATGTTAACATATTACACACATATGTATTTATAAC
DNA 2: GTTATAAATACATATGTGTGTAATATGTTAACATTG

Each binder was assayed against T1, PF3D7_0420300 D1 (assay: gcPBM; about 25 ug protein; PBS, 1% milk, 0.2 mg/ml BSA, salmon testes DNA, 0.03% Triton X-100). Settings: tags: N-terminal GST (pGEX-4T-1), kept; label: surface-attached array probe.

| Binder | binding signal |
| --- | --- |
| B1 | 9.54 ln median PBM intensity, better of two orientations |
| B2 | 9.63 ln median PBM intensity, better of two orientations |
| B3 | 9.51 ln median PBM intensity, better of two orientations |
| B4 | 9.93 ln median PBM intensity, better of two orientations |
| B5 | 9.63 ln median PBM intensity, better of two orientations |
| B6 | 9.49 ln median PBM intensity, better of two orientations |
| B7 | 9.49 ln median PBM intensity, better of two orientations |
| B8 | 9.56 ln median PBM intensity, better of two orientations |
| B9 | 9.61 ln median PBM intensity, better of two orientations |
| B10 | 10.7 ln median PBM intensity, better of two orientations |
| B11 | 9.58 ln median PBM intensity, better of two orientations |
| B12 | 9.92 ln median PBM intensity, better of two orientations |
| B13 | 9.58 ln median PBM intensity, better of two orientations |
| B14 | 9.54 ln median PBM intensity, better of two orientations |
| B15 | 9.86 ln median PBM intensity, better of two orientations |
| B16 | 9.86 ln median PBM intensity, better of two orientations |
| B17 | 9.83 ln median PBM intensity, better of two orientations |
| B18 | 9.93 ln median PBM intensity, better of two orientations |
| B19 | 9.94 ln median PBM intensity, better of two orientations |
| B20 | 9.62 ln median PBM intensity, better of two orientations |
| B21 | 9.9 ln median PBM intensity, better of two orientations |
| B22 | 9.84 ln median PBM intensity, better of two orientations |

| Binder | binding signal |
| --- | --- |
| B23 | 9.92 ln median PBM intensity, better of two orientations |
| B24 | 9.85 ln median PBM intensity, better of two orientations |
| B25 | 9.56 ln median PBM intensity, better of two orientations |
| B26 | 10.8 ln median PBM intensity, better of two orientations |
| B27 | 9.57 ln median PBM intensity, better of two orientations |
| B28 | 9.59 ln median PBM intensity, better of two orientations |
| B29 | 9.87 ln median PBM intensity, better of two orientations |
| B30 | 9.6 ln median PBM intensity, better of two orientations |
| B31 | 9.88 ln median PBM intensity, better of two orientations |
| B32 | 9.9 ln median PBM intensity, better of two orientations |
| B33 | 9.89 ln median PBM intensity, better of two orientations |
| B34 | 9.91 ln median PBM intensity, better of two orientations |
| B35 | 9.5 ln median PBM intensity, better of two orientations |
| B36 | 9.84 ln median PBM intensity, better of two orientations |
| B37 | 9.52 ln median PBM intensity, better of two orientations |
| B38 | 9.53 ln median PBM intensity, better of two orientations |
| B39 | 9.51 ln median PBM intensity, better of two orientations |
| B40 | 9.85 ln median PBM intensity, better of two orientations |
| B41 | 9.83 ln median PBM intensity, better of two orientations |
| B42 | 9.87 ln median PBM intensity, better of two orientations |
| B43 | 9.89 ln median PBM intensity, better of two orientations |
| B44 | 9.55 ln median PBM intensity, better of two orientations |

From article PMC11417369, “DNA sequence and chromatin differentiate sequence-specific transcription factor binding in the human malaria parasite Plasmodium falciparum”
